The record followed here is paper doi:10.1101/2020.09.01.277863.

This assay addresses HalM2, class II lanthipeptide synthetase (wild type) (Bacillus halodurans). As to the kind of experiment: native MS.

Regarding HalA2 precursor peptide (full-length), the dissociation constant (Kd) (commonly the concentration at which binding is half-saturated) turned out to be 2.4 µM and the stoichiometry N (usually a count of units in the complex or per binding partner) turned out to be 1.
